Stoichiometry N data for 6 substances are collected here from publication PMC9417184.

In test [1] the target is Gallionella sp. form II RuBisCO R98A (Gallionella sp.). Briefly: SEC-MALS + other: SAXS; SEC-SAXS-MALS; RuBisCO at 2 to 5 mg/ml, activated with excess NaHCO3; Shodex KW-803 column; 20 mM Hepes-OH pH 8.0, 300 mM NaCl, 10 mM MgCl2, 10 mM NaHCO3; oligomeric state of the enzyme. On the technique in general: Size exclusion chromatography separates by hydrodynamic size, large species first.

In test [2] the target is Gallionella sp. form II RuBisCO R131A (Gallionella sp.). The test is described as above.
Test [3] has as its target Gallionella sp. form II RuBisCO, wild type (GWS1B) (Gallionella sp.). The test is described as above.
Test [4] has as its target Insolitispirillum peregrinum form II RuBisCO, wild type (Insolitispirillum peregrinum). The description is as above.
The target in test [5] is Rhodospirillaceae bacterium BRH_c57 form II RuBisCO (Rhodospirillaceae bacterium BRH_c57). The test is described as above.
Test [6] shares this target. Put plainly: crystal structure; X-ray; RuBisCO activated and incubated with a tenfold molar excess of CABP; molecular replacement.
The target in test [7] is Sulfurivirga caldicuralii form II RuBisCO (Sulfurivirga caldicuralii). Briefly: SEC-MALS + other: SAXS; SEC-SAXS-MALS; RuBisCO at 2 to 5 mg/ml, activated with excess NaHCO3; Shodex KW-803 column; 20 mM Hepes-OH pH 8.0, 300 mM NaCl, 10 mM MgCl2, 10 mM NaHCO3; oligomeric state of the enzyme.
Test [8] shares this target. Put plainly: crystal structure; X-ray; RuBisCO activated and incubated with a tenfold molar excess of CABP; molecular replacement.

The stoichiometry N is a count of units in the complex or per binding partner.

In the case of “Gallionella sp. form II RuBisCO R98A (enzyme)”, in test [1], the stoichiometry N was 2.
Regarding “Gallionella sp. form II RuBisCO R131A (enzyme)”, in test [2], the stoichiometry N was 2.
In the case of “Gallionella sp. form II RuBisCO, wild type (GWS1B) (enzyme)”, in test [3], the stoichiometry N was 6.
For “Insolitispirillum peregrinum form II RuBisCO, wild type (enzyme)”, the stoichiometry N in test [4] came to 2.
“Rhodospirillaceae bacterium BRH_c57 form II RuBisCO (enzyme)”: the stoichiometry N in test [5] and in test [6] was 6 each time.
In the case of “Sulfurivirga caldicuralii form II RuBisCO (enzyme)”, the stoichiometry N in test [7] and in test [8] was 4 throughout.
